Data: US20250115669A1, “FGFR1/KLB Targeting Agonistic Antigen-Binding Proteins and Conjugates Thereof with GLP-1R Agonistic Peptides” (SANOFI, priority 2020, published 2025)
pKd: −log10 of the molar value. Read-outs that look alike come from different tables or passages of the source.

Tests used:
[1] = molecular target: T1, human beta-Klotho (Homo sapiens, UniProt Q86Z14); assay: SPR binding affinity and kinetics to human beta-Klotho (Biacore 8K, anti-human Fc capture)
T1 sequence (Q86Z14 1-1044): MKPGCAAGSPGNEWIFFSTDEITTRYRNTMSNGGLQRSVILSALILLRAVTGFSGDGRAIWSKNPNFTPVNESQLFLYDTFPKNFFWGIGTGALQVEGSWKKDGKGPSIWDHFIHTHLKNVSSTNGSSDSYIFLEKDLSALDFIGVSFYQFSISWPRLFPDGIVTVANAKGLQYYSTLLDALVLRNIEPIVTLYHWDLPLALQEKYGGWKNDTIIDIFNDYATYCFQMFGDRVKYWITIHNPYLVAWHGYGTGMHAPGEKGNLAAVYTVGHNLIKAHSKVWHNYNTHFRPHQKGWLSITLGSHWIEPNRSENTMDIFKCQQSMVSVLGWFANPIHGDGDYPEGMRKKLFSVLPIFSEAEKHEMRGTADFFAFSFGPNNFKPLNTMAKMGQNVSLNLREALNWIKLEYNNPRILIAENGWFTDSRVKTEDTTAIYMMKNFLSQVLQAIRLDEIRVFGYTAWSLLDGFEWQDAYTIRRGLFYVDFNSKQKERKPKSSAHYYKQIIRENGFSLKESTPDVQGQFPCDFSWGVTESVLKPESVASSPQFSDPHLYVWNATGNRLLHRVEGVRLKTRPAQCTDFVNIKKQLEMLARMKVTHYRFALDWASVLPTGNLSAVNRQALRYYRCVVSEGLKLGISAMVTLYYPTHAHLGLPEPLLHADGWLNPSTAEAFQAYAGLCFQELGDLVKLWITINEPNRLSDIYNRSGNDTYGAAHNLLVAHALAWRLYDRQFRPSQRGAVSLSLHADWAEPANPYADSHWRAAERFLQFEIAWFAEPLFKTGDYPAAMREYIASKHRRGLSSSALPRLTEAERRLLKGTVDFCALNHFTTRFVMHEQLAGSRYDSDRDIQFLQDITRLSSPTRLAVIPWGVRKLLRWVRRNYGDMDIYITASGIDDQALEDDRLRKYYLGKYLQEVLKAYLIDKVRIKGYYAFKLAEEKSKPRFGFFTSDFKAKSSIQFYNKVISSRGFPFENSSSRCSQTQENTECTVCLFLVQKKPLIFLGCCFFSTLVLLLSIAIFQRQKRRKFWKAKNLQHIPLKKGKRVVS
Method: Binding affinity and kinetics were measured on a Biacore 8K instrument (GE Healthcare). For the affinity capture of the diluted mAb sample, an anti-human Fc antibody (human antibody capture kit, GE Healthcare) was immobilized on all eight channels of a series S CM5 sensor chip (GE Healthcare) to approximately 10.000 RU. The anti-beta-Klotho antibodies were diluted into HBS-EP+ assay buffer (GE Healthcare) to 0.04 μg/mL. The antibodies were injected in the sample compartment, whereas the reference compartment was used without captured antibody. […] For the antigen inject the flow rate was adjusted to 60 μL/min with an association time of 180 sec and a dissociation time of 1800 sec. The maximum binding signal of beta-Klotho was in the range of 30 RU. At the end of each cycle an inject of regeneration solution, supplied with human antibody capture kit (GE Healthcare), supplemented with 10% non-specific binding reducer (GE Healthcare), for 1 min at 30 μL/min to remove antibody and antigen was performed. Binding kinetics data were evaluated with a 1:1 binding model using the Biacore 8K Evaluation Software version 1.1.1.7442 (GE Healthcare).
For interaction analysis with human beta-klotho, mAbs were captured via an anti-human Fc antibody immobilized on a series S CM5 sensor chip (human antibody capture kit, GE Healthcare). […] Binding kinetics data were evaluated with a 1:1 binding model using the Biacore 8K Evaluation Software version 1.1.1.7442 (GE Healthcare). For interaction analysis with Cynomolgus monkey beta-klotho, mAbs were captured via an anti-human Fc antibody immobilized on a series S CM5 sensor chip (human antibody capture kit, GE Healthcare). […] Binding kinetics data were evaluated with a 1:1 binding model using the Biacore 8K Evaluation Software version 1.1.1.7442 (GE Healthcare). Exemplary sensorgrams for the interaction are shown in FIG. 7 (human KLB) and 8 (monkey KLB), as well as in Table G.

[2] = In vivo PK in cynomolgus monkeys, single intravenous dose; parameters: species or system Cynomolgus monkey (Macaca fascicularis); details: Macaca fascicularis, plasma
Method: Naive cynomolgus monkeys received a single intravenous dose of mAb according to the following table:
In all investigations, the animals were evaluated twice daily for post-dose mortality/moribundity and cage side clinical observations were carried out after each study blood collection time. Studies were Non-GLP, nevertheless, these studies have been conducted in a GLP compliant facility using practices detailed in Standard Operating Procedures consistent with the principles of GLP (Test facility: Sanofi and Charles River Laboratories). Plasma concentrations and pharmacokinetic parameters of the tested antibodies were investigated after single intravenous administration.

[3] = molecular target: T2, FGFR1c and co-receptor beta-Klotho (KLB) (Homo sapiens, UniProt P11362+Q86Z14); assay: Luciferase reporter gene assay (iLite FGF21 Assay Ready Cells), FGF21-like signaling; type: cell-based
T2 construct: host or cells: iLite FGF21 Assay Ready Cells (HEK293)
T2 sequence (P11362 22-820 isoform P11362-2 limits assumed, one chain of several): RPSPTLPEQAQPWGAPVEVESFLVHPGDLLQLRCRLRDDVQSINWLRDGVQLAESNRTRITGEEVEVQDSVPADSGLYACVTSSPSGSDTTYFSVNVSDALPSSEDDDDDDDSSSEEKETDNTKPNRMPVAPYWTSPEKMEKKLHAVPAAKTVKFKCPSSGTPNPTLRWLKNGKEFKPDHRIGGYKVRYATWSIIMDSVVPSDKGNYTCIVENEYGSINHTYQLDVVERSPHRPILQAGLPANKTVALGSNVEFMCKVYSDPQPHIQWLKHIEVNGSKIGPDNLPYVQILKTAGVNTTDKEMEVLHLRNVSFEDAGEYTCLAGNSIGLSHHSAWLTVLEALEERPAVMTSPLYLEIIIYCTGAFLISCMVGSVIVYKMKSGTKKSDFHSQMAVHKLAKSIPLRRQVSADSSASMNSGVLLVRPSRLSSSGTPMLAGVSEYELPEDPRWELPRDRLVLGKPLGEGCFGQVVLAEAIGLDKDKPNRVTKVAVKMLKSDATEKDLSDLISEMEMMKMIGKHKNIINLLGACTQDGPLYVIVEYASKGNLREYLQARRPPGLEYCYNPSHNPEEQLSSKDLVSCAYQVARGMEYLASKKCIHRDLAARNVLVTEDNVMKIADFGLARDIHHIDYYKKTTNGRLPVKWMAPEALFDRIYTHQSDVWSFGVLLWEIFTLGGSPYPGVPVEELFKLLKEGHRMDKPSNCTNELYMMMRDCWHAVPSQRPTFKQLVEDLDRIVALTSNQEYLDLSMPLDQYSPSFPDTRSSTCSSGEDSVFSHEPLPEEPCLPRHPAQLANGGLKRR

[4] = Plasma concentrations and PK during three subcutaneous administrations in obese cynomolgus monkeys; type: in vivo, Cynomolgus monkey (Macaca fascicularis); details: subcutaneous doses of 1 mg/kg, male obese Cynomolgus monkeys
Method: Specifically, plasma concentrations and pharmacokinetic parameters were analyzed during a treatment of three subsequent subcutaneous administrations of 1 and 3 mg/kg in solution to male obese Cynomolgus monkeys. The exposure to both tested antibodies after subcutaneous doses of 1 mg/kg […] were similar. Moreover, plasma concentrations of both compounds were detected up to the end of sampling (i.e. 336 and 504 hours after the 2nd and the 3rd dose, respectively).

[5] = SPR, 1:1 binding model, read-out: KD human KLB

pKd [1, 5] | pKd ([1]; read-out: Affinity SPR KD) | cellular activity in the Luciferase gene reporter assay compared to 16H7 [3] | affinity to human KLB compared to 16H7 [1] | FGF21-like activity in Luciferase gene reporter assay (in words) ([3]; monovalent Fab versus bivalent antibody) | Substance | t½ ([2]; 3.0 mg/kg single IV) | t½ ([2]; 0.1 mg/kg single IV) | t½ ([2]; 0.3 mg/kg single IV) | t½ ([2]; 1.0 mg/kg single IV) | exposure [4]
9.73 | 9.72 | – | – | – | Ab0429: IgG1 NNAS; 16H7 VL (N25S, D49S, D50A, D91E, N93E); 16H7 VH (M34V, I83T, D109E); HC SEQ ID NO: 42, LC SEQ ID NO: 49 | 183 h | – | – | – | –
9.69 | 9.68 | comparable cellular activity | comparable affinity | – | Ab0331: IgG4 PE; 16H7 VL (N25S, D49S, D50E, D91E, N93E); 16H7 VH (M34V, I83T, D109E); HC SEQ ID NO: 38, LC SEQ ID NO: 45 | 259 h | – | – | – | –
9.61 | 9.60 | comparable cellular activity | comparable affinity | – | Ab0351: IgG4 PE; 16H7 VL (N25S, D49E, D50E, D91E, N93E); 16H7 VH (M34V, I83T, D109E); HC SEQ ID NO: 40, LC SEQ ID NO: 47 | – | – | – | – | –
9.69 | 9.68 | – | – | – | Ab0428: IgG1 NNAS; 16H7 VL (N25S, D49S, D50E, D91E, N93E); 16H7 VH (M34V, I83T, D109E); HC SEQ ID NO: 41, LC SEQ ID NO: 48 | – | – | – | – | –
– | – | – | – | shows FGF21-like activity | 16H7: anti FGFR1c/KLB monoclonal antibody of WO 2011/071783, IgG2 backbone; HC SEQ ID NO: 1, LC SEQ ID NO: 2 [Ab 16H7] | – | 145 h | 151 h | 269 h | similar
9.80 | 9.80 | comparable cellular activity | comparable affinity | – | Ab0335: IgG4 PE; 16H7 VL (N25S, D49S, D50A, D91E, N93E); 16H7 VH (M34V, I83T, D109E); HC SEQ ID NO: 39, LC SEQ ID NO: 46 | 306 h | – | – | – | similar
9.54 | 9.54 | – | – | – | Ab0430: IgG1 NNAS; 16H7 VL (N25S, D49E, D50E, D91E, N93E); 16H7 VH (M34V, I83T, D109E); HC SEQ ID NO: 43, LC SEQ ID NO: 50 | – | – | – | – | –
